The test system of test [1] is Hepa1-6/hGPC3 cancer cells. As to the kind of experiment: Syngeneic mouse model: pre-administration of MR-16-1 and drug efficacy of GC33/2C11. The format is in vivo, C57BL/6 mice. The protocol: In a test using a syngeneic mouse model, a study for evaluating the effect of pre-administration of an anti-mouse IL6 receptor antibody, MR-16-1 (see Okazaki M, et al., Characterization of anti-mouse interleukin-6 receptor antibody, Immunol Lett. 2002 Dec. 3; 84(3):231-40; and Saito T, et al., Preparation of soluble murine IL-6 receptor and anti-murine IL-6 receptor antibodies, J. Immunol., 47 (1991), pp. 168-173), on the drug efficacy of ERY974 surrogate antibodies was carried out as follows. Hepa1-6/hGPC3 cancer cells, which are mouse cancer cell line Hepa1-6 made to highly express human GPC3, were transplanted subcutaneously in C57BL/6 mice. The day of transplantation was set to day 0. On day 18, grouping was performed according to tumor size and body weight. MR-16-1 was administered into the tail vein at 30 mg/kg on day 18. On day 19, the day after MR-16-1 administration, GC33/2C11 was administered into the tail vein at 0.2 and 5 mg/kg. MR-16-1 was administered six times in total (on days 18, 21, 25, 28, 32 and day 35). GC33/2C11 was administered once, only on day 19. GC33/2C11 was an antibody comprising the amino acid sequence of SEQ ID NO: 443 as the GPC3-side heavy chain, the amino acid sequence of SEQ ID NO: 444 as the GPC3-side light chain, the amino acid sequence of SEQ ID NO: 445 as the CD3-side heavy chain, and the amino acid sequence of SEQ ID NO: 446 as the CD3-side light chain.

Test [2] concerns Hepa1-6/hGPC3 cancer cells. Briefly: Syngeneic mouse model: post-administration of MR-16-1 and drug efficacy of GC33/2C11. The class given is in vivo, C57BL/6 mice. The protocol:
In a study using a syngeneic mouse model, a study for evaluating the effect of post-administration of an anti-mouse IL6 receptor antibody, MR-16-1, on the drug efficacy of ERY974 surrogate antibodies was carried out as follows. Hepa1-6/hGPC3 cancer cells, which are mouse cancer cell line Hepa1-6 made to highly express human GPC3, were transplanted subcutaneously in C57BL/6 mice. The day of transplantation was set to day 0. On day 16, grouping was performed according to tumor size and body weight. On day 17, GC33/2C11 was first administered into the tail vein at 0.2 or 5 mg/kg, and two hours later, MR-16-1 was administered into the tail vein at 30 mg/kg. MR-16-1 was administered six times in total (on days 17, 21, 24, 28, 31, and day 35). GC33/2C11 was administered once, only on day 17.

B1: GC33/2C11: ERY974 surrogate antibody; GPC3-side chains SEQ ID NO: 443/444, CD3-side chains SEQ ID NO: 445/446 (protein)
chain 1: QVQLVQSGAEVKKPGASVKVSCKASGYTFTDYEMHWIRQPPGQGLEWIGAIDPKTGDTAYSQKFKGRVTLTADKSTSTAYMELSSLTSEDTAVYYCTRFYSYTYWGQGTLVTVSSAKTTPPSVYPLAPGSAAQTNSMVTLGCLVKGYFPEPVTVTWNSGSLSSGVHTFPAVLQSDLYTLSSSVTVPSSTWPSETVTCNVAHPASSTKVDKKIVPRDCGCKPCICTVKEVSKVFIFPPKPKDVLTITLTPKVTCVVVDISKDDPEVQFSWFVDDVEVHTAQTQPREEQFNSTFRSVSELPIMHQDWLNGKEFKCRVNSAAFPAPIEKTISKTKGRPKAPQVYTIPPPKEQMAKDKVSLTCMITDFFPEDITVEWQWNGQPAENYKNTQPIMDTDGSYFVYSELNVQKSNWEAGNTFTCSVLHEGLHNHHTEKSLSHSPGK
chain 2: DIVMTQSPLSLPVTPGEPASISCRSSQSLVHSNRNTYLHWYQQKPGQAPRLLIYKVSNRFSGVPDRFSGSGSGTDFTLKISRVEAEDVGVYYCSQNTHVPPTFGQGTKLEIKRADAAPTVSIFPPSSEQLTSGGASVVCFLNNFYPKDINVKWKIDGSERQNGVLNSWTDQDSKDSTYSMSSTLTLTKDEYERHNSYTCEATHKTSTSPIVKSFNRNEC
chain 3: EVQLVESGGGLVQPGKSLKLSCEASGFTFSGYGMHWVRQAPGRGLESVAYITSSSINIKYADAVKGRFTVSRDNAKNLLFLQMNILKSEDTAMYYCARFDWDKNYWGQGTMVTVSSAKTTPPSVYPLAPGSAAQTNSMVTLGCLVKGYFPEPVTVTWNSGSLSSGVHTFPAVLQSDLYTLSSSVTVPSSTWPSETVTCNVAHPASSTKVDKKIVPRDCGCKPCICTVKEVSKVFIFPPKPKDVLTITLTPKVTCVVVDISKDDPEVQFSWFVDDVEVHTAQTQPREEQFNSTFRSVSELPIMHQDWLNGKEFKCRVNSAAFPAPIEKTISKTKGRPKAPQVYTIPPPKEQMAKDKVSLTCMITDFFPEDITVEWQWNGQPAENYKNTQPIMRTDGSYFVYSKLNVQKSNWEAGNTFTCSVLHEGLHNHHTEKSLSHSPGK
chain 4: DIQMTQSPSSLPASLGDRVTINCQASQDISNYLNWYQQKPGKAPKLLIYYTNKLADGVPSRFSGSGSGRDSSFTISSLESEDIGSYYCQQYYNYPWTFGPGTKLEIKRADAAPTVSIFPPSSEQLTSGGASVVCFLNNFYPKDINVKWKIDGSERQNGVLNSWTDQDSKDSTYSMSSTLTLTKDEYERHNSYTCEATHKTSTSPIVKSFNRNEC
modifications: H0000-mF18mN4; GL4-mk1; 2C11VH-mF18mP4; 2C11VL-mk1
With B1, the “Antitumor activity (%)” value was determined as 80% in test [1] (Group 2: GC33/2C11 0.2 mg/kg tail vein, day 19, alone); 110% in test [1] (Group 3: GC33/2C11 5 mg/kg tail vein, day 19, alone); 99% in test [1] (Group 5: GC33/2C11 0.2 mg/kg day 19 after pre-administration of MR-16-1 (30 then 15 mg/kg, day 18, 21, 25, 28, 32, 35)); 107% in test [1] (Group 6: 5 mg/kg day 19 after pre-administration of MR-16-1 (30 then 15 mg/kg, day 18, 21, 25, 28, 32, 35)); 102% in test [2] (Group 2: GC33/2C11 0.2 mg/kg tail vein, day 17, alone); 109% in test [2] (Group 3: GC33/2C11 5 mg/kg tail vein, day 17, alone). Further, the “Antitumor activity (%)” value in test [2] (Group 5: GC33/2C11 0.2 mg/kg day 17, 2 hours before MR-16-1 (30 then 15 mg/kg, day 17, 21, 24, 28, 31, 35)) was found to be 103%; in test [2] (Group 6: 5 mg/kg day 17, 2 hours before MR-16-1 (30 then 15 mg/kg, day 17, 21, 24, 28, 31, 35)) it was 109%.
